Values joined by “and” are separate entries in the source; they are usually repeats but may differ in a detail not shown here. Equal values may be shown once. Square brackets hold non-standard residues; d marks the D form. Ends that are not written are not given here. NMeR = CN[C@@H](CCCNC(=N)N)C(=O)O; hArg = N=C(N)NCCCC[C@H](N)C(=O)O; Orn = NCCC[C@H](N)C(=O)O
Experiments:
Ac-VQIINK-NH2 = molecular target: T1, Ac-VQIINK-NH2; assay: cell-based or functional assay
T1 peptide: Ac-VQIINK-NH2

His-Tau40P301L Tau = His-Tau40P301L Tau (UniProt P10636-8 1-441); assay: cell-based or functional assay
Sequence of His-Tau40P301L Tau (P10636 other isoform, or with tags, fused parts or gaps limits assumed): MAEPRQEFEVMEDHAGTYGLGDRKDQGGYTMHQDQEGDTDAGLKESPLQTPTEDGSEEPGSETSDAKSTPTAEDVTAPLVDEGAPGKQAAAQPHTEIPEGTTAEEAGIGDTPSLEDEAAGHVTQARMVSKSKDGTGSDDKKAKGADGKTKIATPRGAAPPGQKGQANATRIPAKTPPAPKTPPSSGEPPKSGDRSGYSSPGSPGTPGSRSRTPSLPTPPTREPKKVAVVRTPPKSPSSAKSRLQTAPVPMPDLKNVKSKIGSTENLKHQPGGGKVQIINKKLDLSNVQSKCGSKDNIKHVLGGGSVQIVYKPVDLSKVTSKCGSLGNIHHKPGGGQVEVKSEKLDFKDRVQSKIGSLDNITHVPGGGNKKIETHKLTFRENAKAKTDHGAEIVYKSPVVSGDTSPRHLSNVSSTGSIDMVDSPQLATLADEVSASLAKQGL

Binder	IC50 (µM), VQIINK Inhibition (ThT) (Ac-VQIINK-NH2)	IC50 (µM), Tau40 assay (ThT) (His-Tau40P301L Tau)
ERIRIRW	5.98 µM	12.2 µM
WRIRIRYW	2.44 µM and 3.77 µM	1.22 µM and 1.33 µM and 1.37 µM
WY[Orn]IWI[Orn]W [WYOIWIOW]	2.45 µM	1.92 µM
WRLWFWWR	1.19 µM	1.82 µM
IRLWIW	1.83 µM	9.6 µM
WRIFIRW	9.13 µM	2.01 µM
WRIRLYWW	2.35 µM	1.15 µM
WKIKLKYW	2.82 µM	1.3 µM and 1.32 µM
WRIRWRYW	3.46 µM	0.42 µM and 0.41 µM
RIRIRW	10.8 µM	10.9 µM
FRIRIRW	4.04 µM	1.47 µM
WY[hArg]L[hArg]I[hArg]W [WY(hR)L(hR)I(hR)W]	2.95 µM	1.74 µM
RIRLEWW	3.89 µM	9.8 µM
WWIRIRYWL	4.88 µM	1.2 µM and 1.31 µM
WRIRIRL	7.38 µM	1.52 µM
RLRIWIW	2.04 µM	1.21 µM
WRLRIHW	3.2 µM	1.82 µM
WRIWIRRW	3.85 µM	1.68 µM
LRIRIRW	4.31 µM	2.07 µM
WRLKVRWW	3.34 µM	1.24 µM
WRIQIRW	2.17 µM	1.7 µM and 2.34 µM
RIRILIL	1.64 µM	2.15 µM
LRIRIRL	17.8 µM	1.82 µM
WRIRLWYR	1.7 µM	1.31 µM
WWIRIRYWR	1.79 µM	1.48 µM and 1.58 µM
IWLRLW	2.29 µM	9.93 µM
WKVWVRYW	4.93 µM	2.09 µM

Binder	IC50 (µM), VQIINK Inhibition (ThT) (Ac-VQIINK-NH2)	IC50 (µM), Tau40 assay (ThT) (His-Tau40P301L Tau)
WRITIRW	2.64 µM	1.99 µM
WRIRLWYW	1.98 µM	0.68 µM
WRIWLRYW	2.32 µM	2.05 µM
IWIRLW	2.12 µM	11.4 µM
RWRIWIW	3.44 µM	0.76 µM
WYRIRLRYW	2.98 µM	1.13 µM and 1.21 µM
FRIRIKHY	3.61 µM	9.45 µM
RIWIRLW	2.31 µM	2.06 µM
RIWLRLW	2.01 µM	2.14 µM
WKLKLRWW	0.82 µM	2.06 µM
WRIRIRF	42.8 µM	10.8 µM
WRI[NMeR]IRW [WRI(NMe)RIRW]	3.84 µM	0.57 µM
WIRIRIW	0.81 µM and 1.72 µM	2.03 µM and 2.04 µM
WRARARW	29.1 µM	12 µM
WWIRIRYW	1.92 µM	1.1 µM and 1.38 µM
RIRIFIF	2.87 µM	1.96 µM
WAIRIRW	1.94 µM	1.72 µM
WYRIWVRYW	2.22 µM	1.86 µM and 2.08 µM
WRFRLYLR	2.81 µM	47 µM
HRIWIRYW	4.3 µM	1.87 µM
WWIRIRYWK	1.89 µM	1.02 µM and 1.12 µM
WWIRLRYW	3.24 µM	1.32 µM and 1.53 µM
RRIWIRYW	5.61 µM	1.96 µM
RYRIWIW	5.74 µM	1.61 µM
WRIRLRYW	4.13 µM	1.02 µM and 1.32 µM
WLKVQVRLW	1.71 µM	1.86 µM
